Experimental data taken from patent publication US20250381223A1 (UTC THERAPEUTICS SHANGHAI, published 2025).

T1: CD123-Fc recombinant protein (human, UniProt P26951 19-305)
T1 construct: construct not described; not shown: Fc part
T1 sequence (looked up): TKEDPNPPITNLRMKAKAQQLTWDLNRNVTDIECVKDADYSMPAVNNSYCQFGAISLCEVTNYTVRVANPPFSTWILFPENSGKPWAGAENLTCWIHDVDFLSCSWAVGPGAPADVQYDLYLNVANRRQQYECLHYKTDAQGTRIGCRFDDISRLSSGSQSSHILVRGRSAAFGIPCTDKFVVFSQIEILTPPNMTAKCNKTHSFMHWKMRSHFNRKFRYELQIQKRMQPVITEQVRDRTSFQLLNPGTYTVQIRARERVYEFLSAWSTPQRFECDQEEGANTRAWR

B1: anti-CD123 scFv-C2 (scFv)
scFv: QSVVTQPPSVSAAPGQKVTISCSGSSSNIGNNYVSWYQQFPGTAPKLLIYDNNKRPSGIPDRFSGSKSGTSGTLGITGLQTGDEADYYCVTWDTSLSAGVFGGGTKLTVLGGGGSGGGGSGGGGSQITLKESGGGLVKPGGSLRLSCAASGFTFSNAWMSWVRQAPGKGLEWVGRIKSKTDGGTTDYAAPVKGRFTISRDDSKNTLYLQMNSLKTEDTAVYYCTTDPHGYYYGMDVWGQGTTVTVSS
notes: On mRNA-electroporated T cells as CAR
B2: anti-CD123 scFv-C1 (scFv)
scFv: QSALTQPASVSGSPGQSITISCTGTSSDIGAYNYVSWYQQHPGKAPKLIIYDVSHRPSGVSNRFSGSKSGNTASLTISGLQSEDEADYYCSSDTNNNTLVFGVGTKLTVLGGGGSGGGGSGGGGSEVHLVESGGGVVQPGRSLRLSCAASGFTFSSYGMHWVRQAPGKGLEWVAVIWYDGSNKYYADSVKGRFTISRDNSKNTLYLQMNSLRAEDTAVYYCARDRDGFFLPMYYFDYWGQGTLVTVSS
notes: On mRNA-electroporated T cells as CAR (hinge to CD3-zeta)
B3: anti-CD123 scFv-C18 (scFv)
scFv: QSALTQPASVSGSPGQSITISCTGTSSDVGGYNYVSWYQQHPGKAPKLMIYDVSNRPSGVSNRFSGSKSGNTASLTISGLQAEDEADYYCSSYTSSSTLFVFGTGTELTVLGGGGSGGGGSGGGGSQVQLQESGPGLVKPSQTLSLTCTVSGGSISSGDYYWSWIRQSPGKGLEWIGYIHSTGTTYYNPSLKSRLTISLDTSKNQFSLKLNSVTAADTAVYYCARGGVGTIFNYWGQGTLVTVSS
notes: as for B1
B4: anti-CD123 scFv-C6 (scFv)
scFv: SYELTQPPSVSVSPGQTARIPCSGADLGDQYVSWYQHQPGQSPLLVIYEDDKRPSGIPERFSGSNSGNTATLTISGTQAMDEADYYCQAWDGNAAIFGGGTKLTVLGGGGSGGGGSGGGGSQVQLVQSGGGSVQPGGSLRLSCAASGFTFTRYSMNWVRQAPGKGLEWVSYISSSSSTIYYADSVKGRFTISRDNAKNSLYLQMNSLRDEDTAVYYCARDGYGGNSDYYGMDVWGQGTTVTVSS
notes: as for B1
B5: anti-CD123 scFv-C14 (scFv)
scFv: DIRMTQSPSSLSASVGDRVTITCQASQDITNYLNWYHQKPGKAPKLLIYDASNLETGVPSRFSGGGSGTDFTFTISSLQSEDIGTYYCQQYDDLPLTFGGGTKVEIKGGGGSGGGGSGGGGSQVQLQESGPGLVKPSETLSLTCTVSGGSISSSSHYWGWIRQPPGKGLEWIGSIYYSGSTYYNPSLKSRVTISVDTSKNQFSLKLSSVTAADTAVYYCARRVWVWPTYGMDVWGQGTTVTVSS
notes: as for B1
B6: anti-CD123 scFv-C11 (scFv)
scFv: QSVVTQPPSASGTPGQRVTISCSGSSSNIGSNYVYWYQQLPGTAPKLLIYRNNQRPSGVPDRFSGSKSGTSASLAISGLRSEDEADYYCAAWDDSLSGYVFGTGTKLTVLGGGGSGGGGSGGGGSEVQLVESGGGLVQPGRSLRLSCTASGFTFGDYAMSWVRQAPGKGLEWVGFIRSKAYGGTTEYAASVKGRFTISRDDSKSIAYLQMNSLKTEDTAVYYCTRDIGYYGSGSYSPFDYWGQGTLVTVSS
notes: On mRNA-electroporated T cells as CAR; also called anti-CD123-C11
B7: anti-CD123 scFv-C16 (scFv)
scFv: QSVVTQPPSASGTPGQRVTISCSGSSSNIEGNTVSWYQQFPGAAPKLLIYSNSYRASGVPDRFSGSKSGTSASLAISELQSEDEADYYCSAWDDSLNGPVFGGGTELTVLGGGGSGGGGSGGGGSQVQLQESGGGLVQPGGSLRLSCAASGFTFSSYSMNWVRQAPGKGLEWVSYISSSSSTIYYADSVKGRFTISRDNAKNSLYLQMNSLRAEDTAVYYCARDIYGDWDYYYYGMDVWGQGTTVTVSS
notes: as for B1
B8: anti-CD123 scFv-C13 (scFv)
scFv: DVVMTQTPLSLPVTLGQPASISCRSSQGLVFSDGVTYLNWFQQRPGQSPRRLIYKVSNRDSGVPDRFSGSGSGTDFTLKISRVEAEDVGIYYCMQGTHWPHTFGQGTKLEIKGGGGSGGGGSGGGGSEVQLVESGGGLVKPGGSLRLSCAASGFTFSSYSMNWVRQAPGKGLEWVAFISHDASKKFYADSVKGRFTLSRDNSKNTLYLEMNSLGAEDTALYYCGRDRNWGFSDFWGQGTLVTVSS
notes: as for B1
B9: anti-CD123 scFv-C5 (scFv)
scFv: NFMLTQPHSVSESPGKTVTLSCTRSSGSIAGSYVQWYQQRPGSSPTTVIFQDNQRPSGVPDRFSGSIDKSSNSASLTISGLKTEDEADYYCQSYDSNNQVFGGGTKLTVLGGGGSGGGGSGGGGSEVHLVESGGGVVRPGGSLRLSCAASGFTFGDYGMSWVRQAPGKGLEWVSGINWNGGRTGYADSVKGRFTISRDNAKNSLYLQMNSLRAEDTALYYCARARGSGSYFGYMDVWGKGTTVTVSS
notes: On mRNA-electroporated T cells as CAR; also called anti-CD123-C5
B10: anti-CD123 scFv-C15 (scFv)
scFv: DIQLTQSPSTLSASVGDRVTISCRASQSISSWLAWYQHKPGKAPKLLIYKTSALEDGVPSRFSGSGSGTEFTLTISSLQPDDFATYFCLHYGSYTFGQGTKVDIKGGGGSGGGGSGGGGSEVQLVESGGGLVNPGGSLRLSCEASGFTFSDYYISWIRQAPGKGLEWISYISGSSTYTDFADSVKGRFTISRDNAKNTVFLQMNSLRAEDTAVYYCARDRRGRFDPWGQGTLVTVSS
notes: as for B1
B11: anti-CD123 scFv-C10 (scFv)
scFv: SYELTQPPSVSVAPGKTARITCGGNNIGSKSVHWYQQKPGQAPVLVVYDDSDRPSGIPERFSGSNSGNTATLTISRVEAGDEADYYCQVWDSSSDHWVFGGGTKLTVLGGGGSGGGGSGGGGSQVQLVQSGAEVKKPGSSVKVSCKASGGTFSSYAISWVRQAPGQGLEWMGGIIPIFGTANYAQKFQGRVTITADESTSTAYMELSSLRSEDTAVYYCAREKWGYYGDYYYGMDVWGQGTTVTVSS
notes: as for B1
B12: anti-CD123 scFv-C3 (scFv)
scFv: AIQMTQSPSSLSASVGDRVTITCRASQGIGTYLAWFQQKPGKAPKSLIYAASNLQSGVPSKFSGSGSGTDFTLTISNLQPEDFATYYCQQYKGYPLTFGGGTKLEIKGGGGSGGGGSGGGGSQVQLVQSGAEVKKPGSSVKVSCKASGGTFSSYAISWVRQAPGQGLEWMGGIIPIFGTANYAQKFQGRVTITADESTSTAYMELSSLRSEDTAVYYCARDSGWFGPRYYFDYWGQGTLVTVSS
notes: as for B1
B13: anti-CD123 scFv-C4 (scFv)
scFv: QSALTQPPSASGTPGQRVTISCSGSSSNIGSNYVNWYQQLPGTAPKLLIYRNNQRPSGVPDRFSGSKSGTSASLAISGLRSEDEADYYCAAWDDSLSGHGVFGTGTELTVLGGGGSGGGGSGGGGSQVQLVQSGPEVKKPGASVKVSCKASGYDFIRYYMNWVRQAPGQGPEWMGAIDPSDGDTTYGQKFQGRVTLTRDTFTSTVYMELSSLRSEDTAVYYCARDWELTNSYGLDVWGQGTTVTVSS
notes: as for B1
B14: anti-CD123 scFv-C9 (scFv)
scFv: QSVLTQPPSASGTPGQRVTISCSGSNSNIENNYVYWYQHLPGTAPKRLIYQNNQRPSGVPDRFSGSKSGTSASLAISGLRSEDEADYYCSAWDDSLSAWVFGGGTELTVLGGGGSGGGGSGGGGSEVHLVESGGGLVQPGRSLRLSCTASGFTFGDYAMNWVRQAPGKGLEWVGFIRSKASGGTTDYAASVKGRFTISRDDSKSIAYLQMNSLKTEDTAVYYCTRALRGYSYGLFDYWGQGTLVTVSS
notes: as for B1
B15: anti-CD123 scFv-C17 (scFv)
scFv: QSALTQPASVSGSLGQSITISCTGTSSDVGTYDYVSWYQQHPGKAPKLMIYDVTYRPSGVSHRFSGSKSGNTASLTISGLQADDEADYYCQQYNNWPPRYTFGQGTKVEIKGGGGSGGGGSGGGGSQVQLVQSGAEVEKPGASVKLSCTASGYNFNSYYMHWVRLTPGQGLEWMGLINPTNGRTTYAQKFQGRVTMTGDTSTRTVYLALSSLRSEDSALYYCARGSPPHIFDPDFDYWGQGTLVTVSS
notes: as for B1
B16: huVH5huVL3 (antibody, human IgG1, kappa, V domains shown)
VH: QVQLQESGPGLVKPSETLSLTCTVSGFSISDYGVHWIRQPPGKGLEWIGVIWAGGGTNYNPSLKSRVTISVDTSKNQVSLKLSSVTAADTAVYYCARDKGYSYYYSMDYWGQGTTVTVSS
VL: DIQLTQSPSSLSASVGDRVTITCRASESVEYYVTSLMQWYQQKPGKAPKLLIFAASNVESGVPSRFSGSGSGTDFTLTISSLQPEDFATYYCQQSRKVPYTFGGGTKLEIKR

Biological target: T1, CD123-Fc recombinant protein
Assay: flow cytometry of T cells electroporated with CAR mRNA, stained with CD123-Fc + PE-anti-hIgG-Fc; Mock 1.68
Method: The CD123 CAR mRNAs obtained in Example 35 above were each introduced into T cells by electroporation according to the following procedures: T cells were collected, washed with the Opti-MEM medium, and resuspended at 1×10e⁷/mL with the Opti-MEM medium; 10 μg of RNA and 100 μL of T cells were aliquoted, mixed well, and electroporated under the following parameters (BTX machine): 500 V, 0.7 ms; the cells were then transferred to a pre-warmed medium and cultured at 37° C. The binding of CD123 CART cells to the CD123-Fc recombinant protein was detected by FACS staining. […] Empty vector (Mock) was a control T cell without CAR molecule. A549 tumor cells were electroporated with different amounts of CD123 mRNA. The electroporation procedure was the same as described above, and only the parameters were changed, with the parameters 300 V, 0.5 ms used. CD123 expression in A549 tumor cells was detected by FACS staining of isotype or anti-CD123 antibodies and A549 cells electroporated with different amounts of CD123 mRNA. […] The cytotoxicity of CD123 CART cells against tumor cells was detected in an in vitro cytotoxicity assay. Tumor cells expressing EGFP or EGFP-A549 cells electroporated with different amounts of tumor antigen were seeded at 3000 cells/100 μL/well into a flat-bottom 96-well plate; CART cells were diluted to a proper concentration and seeded to the 100 μL/well tumor cells according to different E/T ratios (e.g., 10:1, 3:1, or 1:1), and the co-culture plate was placed into the IncuCyte S3 machine and scanning parameters were set. After scanning for 3 days, the total green object integrated intensity (GCU×μm²/well) was analyzed to calculate the killing efficiency.

Row | percent of cells in the CD123-Fc positive gate [%] | Binder
1 | 81.7 | B1
2 | 53.6 | B2
3 | 87.8 | B3
4 | 93.3 | B4
5 | 85.4 | B5
6 | 38 | B6
7 | 94.2 | B7
8 | 85.7 | B8
9 | 79.3 | B9
10 | 97.3 | B10
11 | 32.3 | B11
12 | 84.7 | B12
13 | 93.8 | B13
14 | 94 | B14
15 | 97.5 | B15

Biological target: T2, CD28 (detection antigen of the BLI assay) (human, UniProt P10747 19-152, limits assumed)
T2 construct: also called the antigen
Assay: BLI (GATOR); antibody loaded at 30 nM, antigen 300-37.5 nM
Text: The affinity kinetics of the humanized antibodies were detected using biolayer interferometry (BLI). The experimental procedures were as follows: [0533] 1. GATOR instrument was run, and the Kinetics experimental mode was selected. [0534] 2. The analysis program was run according to Table 5

Row | Kd [nM] | koff [s⁻¹] | kon [M⁻¹ s⁻¹] | Binder
16 | 11.5 | 0.00101 | 87800 | B16
